For 3 molecules, EC50, Kd and IC50 results are on record in US20240207432A1 (BIOSION, published 2024).

Experiment [1] has as its target T1, cynomolgus TROP2-his protein (cynomolgus monkey, UniProt P09758 27-272 (human entry), limits assumed).
T1 construct: no cleavage site is stated; also called Cynomolgus monkey TROP2-his protein; monkey TROP2
T1 chain: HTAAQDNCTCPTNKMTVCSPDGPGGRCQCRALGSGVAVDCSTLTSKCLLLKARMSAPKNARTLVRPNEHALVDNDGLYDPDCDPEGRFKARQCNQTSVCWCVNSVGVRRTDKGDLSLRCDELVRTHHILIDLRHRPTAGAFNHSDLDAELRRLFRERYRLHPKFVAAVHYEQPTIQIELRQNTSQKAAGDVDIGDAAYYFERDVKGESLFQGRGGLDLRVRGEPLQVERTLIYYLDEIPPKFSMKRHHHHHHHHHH
The experiment in a line: indirect ELISA, cynomolgus TROP2-his coated, OD(450-630). The procedure: The anti-TROP2 antibodies of the disclosure were tested for their cross-reaction with cynomolgus TROP2 proteins. Briefly, 96-well micro plates were coated with 100 μl 2 μg/ml cynomolgus TROP2-his proteins (prepared in-house with SEQ ID NO: 70) in carbonate/bicarbonate buffer (pH 9.6) overnight at 4° C. ELISA plates were washed once with wash buffer (PBS+0.05% v/v Tween-20, PBST) and then blocked with 200 μl/well blocking buffer (5% w/v non-fatty milk in PBST) for 2 hours at 37° C. […] After a final wash, plates were incubated with 100 μl/well TMB (Innoreagents) at room temperature. The reaction was stopped 3-10 minutes later at room temperature with 50 μl/well 1M H₂SO₄, and the absorbance of each well was read on a microplate reader using dual wavelength mode with 450 nm for TMB and 630 nm as the reference wavelength. The OD (450-630) values were plotted against antibody concentration. Data was analyzed using Graphpad Prism software and EC₅₀ values were reported.
On the technique in general: ELISA stands for enzyme-linked immunosorbent assay.

The target of experiment [2] is T1, cynomolgus TROP2-his protein. The experiment in a line: SPR Biacore T200, benchmark captured on Protein G chip, TROP2-his analyte. The protocol: Un-reacted moieties on the chip (biosensor) surface were blocked with ethanolamine. […] The antigen-antibody association kinetics was followed for 2 minutes and the dissociation kinetics was followed for 10 minutes. The association and dissociation curves were fit to a 1:1 Langmuir binding model using BIAcore evaluation software.

Experiment [3] deals with T2, human TROP2-his protein (human, UniProt P09758 27-274).
T2 construct: Biotin-labelled in the ELISAs, unlabelled analyte in Biacore; also called biotin-labeled human TROP2-his protein; biotin human Trop2-his
T2 sequence: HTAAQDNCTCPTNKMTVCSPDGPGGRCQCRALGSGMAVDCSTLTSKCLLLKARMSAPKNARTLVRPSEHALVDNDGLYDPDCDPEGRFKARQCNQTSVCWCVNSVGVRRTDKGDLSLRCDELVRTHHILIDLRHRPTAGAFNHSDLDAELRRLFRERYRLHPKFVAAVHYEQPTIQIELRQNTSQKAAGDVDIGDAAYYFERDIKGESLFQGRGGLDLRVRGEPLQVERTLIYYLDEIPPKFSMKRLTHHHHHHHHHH
The experiment in a line: capture ELISA, antibody captured on anti-human IgG Fc coat, biotin human TROP2-his in solution, OD(450-630). The protocol:
Plates were washed once with wash buffer (PBS+0.05% v/v Tween-20, PBST) and then blocked with 200 μl/well blocking buffer (5% w/v non-fatty milk in PBST) for 2 hours at 37° C. […] Plates containing captured anti-TROP2 antibodies were incubated with biotin-labeled human TROP2-his protein (prepared in house, SEQ ID NO: 67, 56.7 ng/mL in 2.5% w/v non-fatty milk in PBST, 100 μl/well) for 40 minutes at 37° C., washed 4 times, and incubated with streptavidin conjugated HRP (1:10000 dilution in PBST, Jackson Immuno Research, Cat #016-030-084, 100 μl/well) for 40 minutes at 37° C. After a final wash, plates were incubated with 100 μl/well ELISA substrate TMB (Innoreagents, Cat #TMB-S-002) at room temperature. The reaction was stopped in 3-10 minutes at room temperature with 50 μl/well 1M H₂SO₄, and the absorbance of each well was read on a microplate reader using dual wavelength mode with 450 nm for TMB and 630 nm as the reference wavelength. The OD (450-630) values were plotted against antibody concentration. Data was analyzed using Graphpad Prism software and EC₅₀ values were reported.
For the capture ELISA, AffiniPure Goat Anti-Human IgG, Fcγ fragment specific (Jackson Immuno Research, Cat #109-005-098) was used instead of AffiniPure Goat Anti-Mouse IgG, Fcγ fragment specific, 100 μl/well.

Experiment [4] deals with T2, human TROP2-his protein. The experiment in a line: competitive ELISA: BM1 coated at 1 ug/mL, antibody premixed with biotin human TROP2-his; blocked: binding of TROP2-his to coated BM1 (self-competition). The procedure:
(§1) The mouse anti-TROP2 antibodies were tested for epitope binding in a competitive ELISA assay. […] ELISA plates were washed once with wash buffer (PBS+0.05% v/v Tween-20, PBST) and then blocked with 200 μl blocking buffer (5% w/v non-fatty milk in PBST) for 2 hours at 37° C. While blocking, the anti-TROP2 antibodies or controls were diluted with biotin labeled human TROP2-his protein (SEQ ID NO: 67, 34 ng/mL in 2.5% wA non-fatty milk in PBST), starting at 80 nM with a 5-fold serial dilution, and incubated at room temperature for 40 minutes. After plate washing for 4 times, the antibody/TROP2-his protein mixtures were added to the antibody coated plates, 100 μl per well. After incubation at 37° C. for 40 minutes, plates were washed 4 times again using wash buffer. Then the plates were added and incubated with 100 μl Peroxidase Streptavidin (1:10000 dilution in PBST buffer. Jackson Immunoresearch, Cat #016-030-084) for 40 minutes at 37° C. Plates were washed again using wash buffer. Finally, TMB was added and the reaction was stopped using 1M H₂SO₄. The absorbance of each well was read on a microplate reader using dual wavelength mode with 450 nm for TMB and 630 nm as the reference wavelength, and the OD (450-630) values were plotted against antibody concentration. Data was analyzed using Graphpad Prism software and IC₅₀ values were reported.

Experiment [5] deals with T2, human TROP2-his protein. The experiment is described as follows: capture ELISA, captured antibody, biotin human TROP2-his in solution, OD(450-630).
Experiment [6] has as its target T2, human TROP2-his protein. The experiment in a line: competitive ELISA: mouse A1H3C5H8E12 coated at 2 ug/mL, antibody premixed with biotin human TROP2-his; blocked: binding of TROP2-his to coated A1H3C5H8E12 (self-competition); no lower plateau reached at 80 nM. The protocol: as §1

B1: benchmark (in house prepared sacituzumab) (antibody, human IgG1, kappa, V domains shown)
VH: SVQLQQSGSELKKPGASVKVSCKASGYTFTNYGMNWVKQAPGQGLKWMGWINTYTGEPTYTDDFKGRFAFSLDTSVSTAYLQISSLKADDTAVYFCARGGFGSSYWYFDVWGQGSLVTVSS
VL: DIQLTQSPSSLSASVGDRVSITCKASQDVSIAVAWYQQKPGKAPKLLIYSASYRYTGVPDRFSGSGSGTDFTLTISSLQPEDFAVYYCQQHYITPLTFGAGTKVEIKR
notes: also called BM; BM1
On to B1, for which the 50% effective concentration (EC50) (as a rule, the midpoint of the concentration-response curve) in experiment [1] was 138 pM; with human TROP2-his protein [3] it was 270 pM. In experiment [2], the dissociation constant (Kd) (usually the free concentration of one partner at which half of the binding sites on the other are occupied at equilibrium, for simple one-to-one binding) is 557 pM. Moreover, the IC50 (in general, the midpoint of a concentration-inhibition curve) in the experiment with human TROP2-his protein [4] amounted to 1280 pM.

B2: mouse antibody A1E4F7D4 (antibody, V domains shown)
VH: QVQLQQSGAELAKPGTSVKMSCEASGYSFTTHWIHWMKQRPGQGLEWIGTIFPSNAYAVYNQKFRDRAIMTADRSSTTAYIQLTGLTSEDSAVYYCARASYFDYWGQGTTLTVSS
VL: DILLTQSPATLSVSPGERVTFSCRASQNIGTSIHWFQQRTTGSPRLLIKYASESISGIPSRFSGSGSGTDFTLHINSVESEDIAHYYCQHSHSWPFTFGSGTKLEIQ
notes: Mouse monoclonal IgG purified from hybridoma supernatant; also called Mouse A1E4F7D4
In the experiment with human TROP2-his protein [5], B2 yielded an EC50 of 147 pM.

B3: mouse antibody A1H3C5H8E12 (antibody, V domains shown)
VH: QVQLQQSGAELVRPGTSVKMSCKAAGYTFTNYWIDWVKQRPGHGLEWIGNIFPGGFYTNYNEKFKGKATLTADTSSSTAYMQLSSLTSEDSAIYYCARGGVFDYWGQGTTLTVSS
VL: DILLTQSPAILSVSPGERVSFSCRASQSIGTSIHWYQQRTNGSPRLLIKYASESISGIPSRFSGSGSGTDFTLSINSVESEDIADYYCQQSNSWPYTFGGGTKLEIK
notes: Mouse monoclonal IgG purified from hybridoma supernatant
In the experiment with human TROP2-his protein [6], B3 came in with an IC50 of 7000 pM.
